Test results from the domain aggregation screens of Martell et al. (2025).

Assay: soluble fraction after stress (log2 fold change); higher = more stays soluble; pooled small domains, quantitative proteomics
Conditions: stress: 75 degC
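Also: 20 min heating vs room temperature control held 20 min.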

For “HMAIDLPVTTVNGKDYYYYDVQPKETIFSLSQRLGISREEIISYNPGVDGGLKAYTRLYFPVESGL”, the “soluble fraction (log2)” value was -1.21.

For “HMAIDLSLIPGNLLRELHGAVEDGDMYRIRELIRSISAVDEKVGKELLLLAERYDYERLLELVND”, the “soluble fraction (log2)” value was -0.887.

With “HMAIDWVQIKAEYISGTMSASKLAEKHGVSVYAIRKRSGKERWQELRRQNQSETANKIAEKI” the “soluble fraction (log2)” value was -2.16.

With “HMAIDYYQTLINLGYKLQDRGDYWQTSAIHRGGDNPTALQIYKNTGVWKDYVSGGGFKPFKALVEKSD” the “soluble fraction (log2)” value was -0.944.

In the case of “HMAIELTPRQLDIIELVRKHAPITGEQIAELLGVTRPSIRSDLGLLVMLGYIDAKPKVGYFAGPRM”, the “soluble fraction (log2)” value is reported as -1.16.

In the case of “HMAIGSRLKVTTDATNLNIRSTPSTEGDIVGKAAHHEIVTLVEKTDDSWWKIKTNDGEEGYAYAQYLSPV”, the “soluble fraction (log2)” value is reported as -0.031.

With “HMAIIQSNNIFKSQKEIVDEILVELDIPKDKWNFFHMLISSGYKDEFDTNRIYEIIQTNYNMMDR” the “soluble fraction (log2)” value was -0.298.

In the case of “HMAILDTALDVLSMNLKDNYTSFQILRQAAIAGKIAFNLTEKNPLGGVIEVELTGDDLETWIEAATW”, the “soluble fraction (log2)” value is reported as 0.183.

For “HMAIMISINAKGEVAWNDQIISLDDLAQRFNAAGQQAQKPTVQLRADKESRYDMVAQVMSRASEAGLSDIA”, the “soluble fraction (log2)” value was -0.83.

In the case of “HMAIRLIKASREFNVGISTIVEFLEKKGHAIDSDPNSKIPDELYQLIEKEFQTEGSVKKAAKQI”, the “soluble fraction (log2)” value is reported as -1.81.

With “HMAITLEVAKKHLEMWLEAESEVAINQSYTIGGKSFTRANLAEIRKQIEYWSNKVAELENLA” the “soluble fraction (log2)” value was -1.04.

With “HMAITYETKVISGVNLRSAPSTSASVYQLIPKGENIHVVQKVNDYWLKVQTKDGKTGYISASSKYTNYIG” the “soluble fraction (log2)” value was -2.7.

In the case of “HMAIWAVFYKNEPFNLKSFNSLTSYPGPKYKKTSFSNPGHALNLAKKLNLTFGTEDFQVVKLTQGTIV”, the “soluble fraction (log2)” value is reported as -2.69.

In the case of “HMAKIEVENLEETILENLKANNGFMPYNDKTSPEEIYEVFHVSKKHFKNSLGGLMKKGLIFQNEKGTKL”, the “soluble fraction (log2)” value is reported as -0.193.

In the case of “HMAKITERVMGSAALRDYDPNYLPDEVLKALDGYPPFDGYVYKDGILYARVKIGDTFFIIPPI”, the “soluble fraction (log2)” value is reported as -2.53.

In the case of “HMAKKDVESTLGGRLRVARVRAGLTQVELARMLGMNSVSLSNVEGGRRGLSMKQLVRVAKILEVPVAYLLG”, the “soluble fraction (log2)” value is reported as -2.36.

For “HMAKMPSIIIMKDGVIRTSELEQIERDENWLNEEMKKQHIDNPEDVFLAEFWDGKVNFILQDGKIK”, the “soluble fraction (log2)” value was -0.0894.

For “HMAKNDSGLNNHTFNTIRDALQKALTDGPQEAKKLTENLPFPADKIITVIRYLADHDEHFSLEDGIISLT”, the “soluble fraction (log2)” value was 0.609.

With “HMAKNIEVPNLVGSTISVARNDLKQLGLHVIVRDSVWSEDKKIDTILEQFPEPGKKLKPEGVVQVVVSI” the “soluble fraction (log2)” value was -0.909.

In the case of “HMAKNSVLTIELWNSTAFKWRKDTEPYSESMSVDFNRSVRLTDGISIMFSKFGFVPGIQYLIPLQT”, the “soluble fraction (log2)” value is reported as -0.534.

With “HMAKQQTTTTAHVVTTGETLYSIAQKNGISVEELKKSNNITSDKLRPGQTLHITKVSKTSSTAK” the “soluble fraction (log2)” value was 0.87.

In the case of “HMAKRPRFEDVIKEINTEIQKRKGKWNLTILSWMDFDDVAQVIRIHIYRKWHLYDPSKPLGPWLNR”, the “soluble fraction (log2)” value is reported as -0.339.

For “HMAKSETAKIKATPYGWLRVRDTPSLNGAEIARVNSGDEYKVLEKETGWIKIKVSDTVEGWVSDAYIELS”, the “soluble fraction (log2)” value was -0.21.

For “HMAKSKYETHVLPNLDKIIKWAKAGATAKEIAANLHIAYSTFRKYLDEGQEGDERYAALSAAFAQA”, the “soluble fraction (log2)” value was -0.0762.

With “HMALDLNEDEKLLVELIEKAGGTAGLGELKEASGLSGKKWDKTTKNLSKEGLIKVEKNESGLWVHLT” the “soluble fraction (log2)” value was 0.0861.

In the case of “HMALDLPVKRVKGKEYYYYKVKKGESLYGISKHLGLPLDSIVKSNPSVADGVRKGDMLLFPLEEYT”, the “soluble fraction (log2)” value is reported as -0.702.

With “HMALKQADFDFIRQMIQQRAAIVLDDNKHYFVESRLGPVVEETGSKSLDQLIDQLRSSSNSLLQQKVTEAI” the “soluble fraction (log2)” value was -0.372.

In the case of “HMALLSDEERIATVFAARLGGYSHQEIYKLLQDRFGPSLPAAYSEKSVLTDLQTALSQVPSL”, the “soluble fraction (log2)” value is reported as -0.814.

For “HMALPEHIEPFLRGLGQALAEGDSYEDVQERLLRAYPYLDSTEFQTALARVIFISDLWGRLN”, the “soluble fraction (log2)” value was -1.85.

With “HMALPPPELRGATGEAVTALRPAGIALIQGKRYDVLAEGGEWIAAGAAVRVRDIRNGHLIVSDA” the “soluble fraction (log2)” value was -0.268.

In the case of “HMALRFMAYGRINGTNVHFRTGASASTASLGRYSRGTEFGVYDKIGGWYRVRLLSTGQEGYVYSRYLTLTG”, the “soluble fraction (log2)” value is reported as -2.53.
